Data from article PMC8138766, “Defining steps in RAVE-catalyzed V-ATPase assembly using purified RAVE and V-ATPase subcomplexes” (The Journal of Biological Chemistry, 2021).
Where “and” joins values, the source holds several entries; their conditions need not be identical. Equal values may be shown once.

Biological target: RAVE–V1 complex (yeast | yeast (endogenous), UniProt P47104 1-1357; Q03956 1-351; P52286 1-194; P16140 1-517; P32610 1-256; P22203 …, VMA1 intein (284-737) spliced out; Rav2 C-terminal FLAG and Skp1 C-terminal 6xGly-6xHis tags omitted; subunit C (Vma5) only substoichiometric, so omitted; V1 copy numbers (A3B3DE3FG3H) and RAVE 1:1:1)
Assay: BLI; Octet RED384, 22 °C, PBS or TBSE with 0.5 mg/ml BSA; MBP-C (5 μg/ml) captured by anti-MBP antibody on anti-mouse IgG sensors; RAVE–V1 or RAVE in solution at varied concentrations, 2400 s association and 2400 s dissociation; global single-site fit
Details: both partners purified

B1: maltose-binding protein (MBP)–tagged subunit C (natural protein, yeast, UniProt P31412 1-392, looked up)
chain: MATALYTANDFILISLPQNAQPVTAPGSKTDSWFNETLIGGRAFVSDFKIPEFKIGSLDTLIVESEELSKVDNQIGASIGKIIEILQGLNETSTNAYRTLPINNMPVPEYLENFQWQTRKFKLDKSIKDLITLISNESSQLDADVRATYANYNSAKTNLAAAERKKTGDLSVRSLHDIVKPEDFVLNSEHLTTVLVAVPKSLKSDFEKSYETLSKNVVPASASVIAEDAEYVLFNVHLFKKNVQEFTTAAREKKFIPREFNYSEELIDQLKKEHDSAASLEQSLRVQLVRLAKTAYVDVFINWFHIKALRVYVESVLRYGLPPHFNIKIIAVPPKNLSKCKSELIDAFGFLGGNAFMKDKKGKINKQDTSLHQYASLVDTEYEPFVMYIINL
notes: V-ATPase V1 subunit C (Vma5), yeast; MBP was not cleaved; also called MBP-C; expressed subunit C; source: E. coli Rosetta2, purified (amylose column)
In the case of B1, the Kd is reported as 13.6 nM and 18.1 nM.
